The results in this text go back to paper doi:10.1101/2021.05.11.443575.

Assay [1] addresses FLAG-PfDdi1^D262N (recombinant full length catalytically inactive PfDdi1 with N-terminal FLAG tag) (P. falciparum). Put plainly: native MS.
Assay [2] deals with FLAG-PfDdi1 (recombinant full length PfDdi1 with N-terminal FLAG tag) (P. falciparum). The assay can be described thus: native MS.

Take “FLAG-PfDdi1^D262N (recombinant full length catalytically inactive PfDdi1 with N-terminal FLAG tag) (enzyme)”: in assay [1], the stoichiometry N (in general, a count of units in the complex or per binding partner) is 2.

“FLAG-PfDdi1 (recombinant full length PfDdi1 with N-terminal FLAG tag) (enzyme)”: the stoichiometry N in assay [2] came out at 2.
